This is an account of results in US20260159603A1.

This assay has as its target huCD5-BTN (human) (UniProt P06127). Kind of assay: BLI in tandem, huCD5-BTN saturated with UCHT2 first; competitor UCHT2.

huCD5-BTN (human), sequence (P06127 25-372 limits assumed): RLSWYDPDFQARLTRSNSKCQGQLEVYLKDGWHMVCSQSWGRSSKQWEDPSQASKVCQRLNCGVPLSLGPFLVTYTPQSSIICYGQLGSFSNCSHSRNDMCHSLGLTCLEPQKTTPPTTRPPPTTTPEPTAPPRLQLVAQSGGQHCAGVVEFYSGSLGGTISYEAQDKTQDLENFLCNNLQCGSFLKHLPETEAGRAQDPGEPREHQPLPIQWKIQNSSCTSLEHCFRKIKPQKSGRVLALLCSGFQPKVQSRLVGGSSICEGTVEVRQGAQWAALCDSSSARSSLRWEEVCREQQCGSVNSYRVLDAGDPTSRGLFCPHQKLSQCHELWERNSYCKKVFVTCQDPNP

UCHT2 (antibody) gave a response (Response Units) of 0.
